This passage reports protein stability index results from the supplement of paper PMC10567573.

B1: USP39 (parent)
chain: FVEKNPTIVNFPITNVDLREYLSE
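Note: lentivirally expressed fusions sorted by FACS into six bins by GFP to DsRed ratio, PSI derived from sequencing read proportions per bin multiplied by bin number.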

In this data set the parent is B1. The data set is described as follows: protein stability index of a GFP-peptide fusion (GPS, HEK-293T) (PSI 1-6); higher = more stable. The settings on record: c terminus: a fixed tail appended.
Consider FVEKNPTIVNFPITNHDLREYLSE, for which the protein stability index was 1.49. FVEKNPTIVNFPITNNDLREYLSE: the protein stability index turned out to be 1.49. As to FVEKNPTIVNFPITNFDLREYLSE, the protein stability index is 1.8. The value for FVEKNPTIVNFPITNSDLREYLSE was 1.82; that for FVEKNPTIVNFPITNEDLREYLSE was 2.04.

As for FVEKNPTIVNFPITTVDLREYLSE, the protein stability index is 1.43. The figure for FVEKNPTIVNFPITKVDLREYLSE is 2.13. The value for FVEKNPTIVNFPITVVDLREYLSE was 2.27.

Consider FVEKNPTIVNFPITRVDLREYLSE, for which the protein stability index was determined as 2.21. The figure for FVEKNPTIVNFPITAVDLREYLSE is 1.52; for FVEKNPTIVNFPITSVDLREYLSE it is 1.18.

Take FVEKNPTIVNFPITPVDLREYLSE: the protein stability index came to 1.45. For FVEKNPTIVNFPITGVDLREYLSE, the protein stability index was found to be 1.37. The value for FVEKNPTIVNFPITIVDLREYLSE was 2.26; that for FVEKNPTIVNFPITYVDLREYLSE was 2.3. FVEKNPTIVNFPITLVDLREYLSE: the protein stability index was 2.05.

For the variant FVEKNPTIVNFPITMVDLREYLSE, the protein stability index was 2.12. The figure for FVEKNPTIVNFPITDVDLREYLSE is 1.56; for FVEKNPTIVNFPITCVDLREYLSE it is 1.77. The value for FVEKNPTIVNFPITHVDLREYLSE was 1.44; that for FVEKNPTIVNFPITQVDLREYLSE was 2.13. The value for FVEKNPTIVNFCITNVDLREYLSE was 1.48. FVEKNPTIVNFQITNVDLREYLSE: the protein stability index came out at 1.74.

As to FVEKNPTIVNFKITNVDLREYLSE, the protein stability index stood at 1.56.

Take FVEKNPTIVNFTITNVDLREYLSE: the protein stability index was 2.28. The figure for FVEKNPTIVNFHITNVDLREYLSE is 1.47; for FVEKNPTIVNFWITNVDLREYLSE it is 2.96; for FVEKNPTIVNFIITNVDLREYLSE it is 2.38. The value for FVEKNPTIVNFAITNVDLREYLSE was 2.06; that for FVEKNPTIVNFVITNVDLREYLSE was 2.28. The value for FVEKNPTIVNFRITNVDLREYLSE was 2.74; that for FVEKNPTIVNFMITNVDLREYLSE was 3.23.

Take FVEKNPTIVNFGITNVDLREYLSE: the protein stability index turned out to be 2.21. The figure for FVEKNPTIVNFNITNVDLREYLSE is 2.3; for FVEKNPTIVNFSITNVDLREYLSE it is 1.34; for FVEKNPTIVNFFITNVDLREYLSE it is 3.66. The value for FVEKNPTIVNFEITNVDLREYLSE was 1.66; that for FVEKNPTIVNFPIINVDLREYLSE was 3.46; that for FVEKNPTIVNFPISNVDLREYLSE was 2.08.

For FVEKNPTIVNFPINNVDLREYLSE, the protein stability index was 2.67. The value for FVEKNPTIVNFPIRNVDLREYLSE was 2.78; that for FVEKNPTIVNFPIWNVDLREYLSE was 3.7. The figure for FVEKNPTIVNFPIPNVDLREYLSE is 1.54; for FVEKNPTIVNFPIQNVDLREYLSE it is 1.81; for FVEKNPTIVNFPIKNVDLREYLSE it is 1.73. The value for FVEKNPTIVNFPIYNVDLREYLSE was 1.97. For the variant FVEKNPTIVNFPIHNVDLREYLSE, the protein stability index worked out at 2.09.

For the variant FVEKNPTIVNFPIFNVDLREYLSE, the protein stability index came to 1.98. The value for FVEKNPTIVNFPIVNVDLREYLSE was 2.08; that for FVEKNPTIVNFPIDNVDLREYLSE was 2.65; that for FVEKNPTIVNFPICNVDLREYLSE was 1.72. Turning to FVEKNPTIVNFPIENVDLREYLSE, the protein stability index is 1.43. The value for FVEKNPTIVNFPIANVDLREYLSE was 1.74. Turning to FVEKNPTIVNFPIMNVDLREYLSE, the protein stability index turned out to be 1.57. The value for FVEKNPTIVNFPIGNVDLREYLSE was 1.82.

As to FVEKNPTIVNFPILNVDLREYLSE, the protein stability index is 1.86. The figure for FVEKNPTTVNFPITNVDLREYLSE is 3.34.

Take FVEKNPTCVNFPITNVDLREYLSE: the protein stability index was 2.02. The figure for FVEKNPTSVNFPITNVDLREYLSE is 2.89; for FVEKNPTWVNFPITNVDLREYLSE it is 2.96. The value for FVEKNPTGVNFPITNVDLREYLSE was 1.91; that for FVEKNPTVVNFPITNVDLREYLSE was 1.89; that for FVEKNPTKVNFPITNVDLREYLSE was 2.04.

With FVEKNPTMVNFPITNVDLREYLSE, the protein stability index was found to be 1.25.

With FVEKNPTQVNFPITNVDLREYLSE, the protein stability index was found to be 2.54. As to FVEKNPTDVNFPITNVDLREYLSE, the protein stability index is 2.77.

As to FVEKNPTNVNFPITNVDLREYLSE, the protein stability index stood at 2.1. The value for FVEKNPTFVNFPITNVDLREYLSE was 2.25. The figure for FVEKNPTAVNFPITNVDLREYLSE is 1.82; for FVEKNPTLVNFPITNVDLREYLSE it is 2.81; for FVEKNPTPVNFPITNVDLREYLSE it is 2.76.

Consider FVEKNPTYVNFPITNVDLREYLSE, for which the protein stability index came to 1.55. The value for FVEKNPTRVNFPITNVDLREYLSE was 2.56; that for FVEKNPTHVNFPITNVDLREYLSE was 2.12; that for FVEKNPTEVNFPITNVDLREYLSE was 2.67. The value for FVEKNPTIVNCPITNVDLREYLSE was 2.01; that for FVEKNPTIVNVPITNVDLREYLSE was 1.82. The value for FVEKNPTIVNGPITNVDLREYLSE was 2.13. As for FVEKNPTIVNSPITNVDLREYLSE, the protein stability index is 1.77. The value for FVEKNPTIVNTPITNVDLREYLSE was 2.02; that for FVEKNPTIVNLPITNVDLREYLSE was 1.88; that for FVEKNPTIVNYPITNVDLREYLSE was 3.36. Consider FVEKNPTIVNRPITNVDLREYLSE, for which the protein stability index is 2.02.

For FVEKNPTIVNPPITNVDLREYLSE, the protein stability index stood at 2. The value for FVEKNPTIVNKPITNVDLREYLSE was 2.05; that for FVEKNPTIVNNPITNVDLREYLSE was 2.22; that for FVEKNPTIVNWPITNVDLREYLSE was 1.23. Consider FVEKNPTIVNAPITNVDLREYLSE, for which the protein stability index came out at 1.85. The figure for FVEKNPTIVNEPITNVDLREYLSE is 3.01. The figure for FVEKNPTIVNQPITNVDLREYLSE is 2.09; for FVEKNPTIVNMPITNVDLREYLSE it is 1.78; for FVEKNPTIVNDPITNVDLREYLSE it is 2.82. The figure for FVEKNPTIVNIPITNVDLREYLSE is 2.42.

FVEKNPTIVNHPITNVDLREYLSE: the protein stability index was 2.
